Results as given in patent US5374506A, “Amino acid sequence for a functional human interleukin-8 receptor” (The United States of America as represented by the …, priority 1991, dated 1994).

How the values were obtained:
[1] = system: oocytes injected with 50 ng of HL60 neutrophil RNA; test: calcium efflux assay in oocytes injected with HL60 neutrophil RNA; assay type: cell-based, Xenopus; conditions: oocytes injected with 50 ng HL60 neutrophil RNA
Method: (§1) The materials and methods used for the calcium efflux assay were as described in P. M. Murphy, E. K. Gallin, H. L. Tiffany, J. Immunol. […] Oocytes were microinjected with RNA samples in a total volume of 50 nl per oocyte 3 days after harvesting and were then incubated at 20° to 23° C. for 2 to 4 days. Oocytes were then incubated with ^45 Ca^2+ [50 μCi/ml (ICN Biomedicals, Costa Mesa, Calif.)] for 3 hours. After ten washes with medium, individual oocytes were stimulated with ligand in wells of a 96-well tissue culture plate containing 100 μl of medium. Three 100 μl samples of the incubation medium were collected and analyzed by liquid scintillation counting: a) the final 100 μl wash (20 min) before application of ligand; b) fluid containing the stimulus, removed after a 20 min incubation with the oocyte; and c) the oocyte solubilized in SDS (1%) in medium 20 min after stimulation. Data are presented as the mean±standard error of the mean (SEM) of the percent of loaded ^45 Ca^2+ that was released by individual oocytes in response to the stimulus, or [(b-a).div.(b+c)]×100. FMLP and recombinant human C5a was from Sigma, St. Louis, Mo. Recombinant human IL-8 was from Genzyme, Boston, Mass. Recombinant human NAP-2 was from Bachem, Philadelphia, Pa.

human IL-8 receptor [2] = target: T1, human IL-8 receptor (Homo sapiens, UniProt P25025); test: calcium efflux assay in Xenopus oocytes injected with p2 cRNA; assay type: cell-based; conditions: for calcium mobilization / activation of the IL-8 receptor (result in words): FIG. 2C; for rank order of potency for activating calcium flux: IL-8 receptor expressed by Xenopus oocytes, FIG. 2(C)
T1 construct: expressed in transfected cells; host or cells: Xenopus oocytes injected with p2 cRNA
T1 sequence (P25025 6-360): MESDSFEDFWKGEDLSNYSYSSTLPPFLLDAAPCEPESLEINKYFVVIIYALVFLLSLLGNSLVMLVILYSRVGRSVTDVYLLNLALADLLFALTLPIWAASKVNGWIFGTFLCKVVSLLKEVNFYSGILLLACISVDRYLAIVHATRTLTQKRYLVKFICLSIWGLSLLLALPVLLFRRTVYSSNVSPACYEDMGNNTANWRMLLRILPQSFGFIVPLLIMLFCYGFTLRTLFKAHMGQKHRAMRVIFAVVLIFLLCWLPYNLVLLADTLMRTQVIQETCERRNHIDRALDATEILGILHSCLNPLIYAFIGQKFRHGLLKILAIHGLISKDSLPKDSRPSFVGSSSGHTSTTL
Method: as §1

receptor encoded by p2 = test: binding of 125I-labeled IL-8 and gro to COS cells transiently transfected with pCDNAI-p2; parameters: species or system human; conditions: receptor encoded by p2 expressed in COS cells
Method: To further support the data obtained from the oocyte studies, the p2 cDNA was also cloned into the vector pCDNAI. When COS cells are transiently transfected with the pCDNAI-p2 construct, specific binding sites were detected with ^125 I-labeled IL-8 and gro protein. In contrast to the ligand binding affinity in the oocyte environment, the affinity for the ligand when the receptor encoded by p2 was expressed in the COS cell was higher. Specifically, the kd for IL-8 was 2 nM and the kd for gro was 1.3 nM.

[3] = target: human interleukin-8 receptor encoded by cDNA clone p2 (human)
recombinant human C5a = recombinant human C5a (human, UniProt P01031); test: displacement of [125I]-IL-8 from Xenopus oocytes injected with p2 cRNA
recombinant human IL-8 = recombinant human IL-8 (human, UniProt P10145, 125I label in the binding experiments); test: binding of 125I-labeled IL-8 to COS cells transiently transfected with pCDNAI-p2
[4] = target: gro (melanoma growth-stimulatory activity) (Homo sapiens (Human), UniProt P09341, 125I label in the COS cell binding experiment); test: binding of 125I-labeled gro to COS cells transiently transfected with pCDNAI-p2
human IL-8 receptor [5] = target: T1, human IL-8 receptor; test: binding of [125I]-IL-8 to oocytes injected with p2 cRNA; conditions: 1 μM competitor
Method: Total ( ) and non-specific binding (.largecircle.) was determined by incubating oocytes injected with p2 cRNA with the indicated concentration of radioligand in the absence or presence of unlabeled IL-8 (1 μM), respectively. The data shown are the mean±SEM of triplicate determinations per point and are representative of two separate experiments. Nonspecific binding was subtracted from total binding to determine specific binding (.quadrature.). […] Specific binding of [^125 I]-IL-8 by oocytes injected with water was undetectable.
IL-8 was iodinated to a specific activity of 260 Ci/mmole as described in H. L. Malech, J. P. Gardner, D. F. Heiman, S. A. Rosenzweig, J. Biol. Chem. 260, 2509 (1985). The radioligand was qualified by binding to human neutrophils. Single oocytes were incubated with [^125 I]-IL-8 for 30 min on ice in 10 μl binding buffer (Hanks balanced salt solution with 25 mM HEPES, 1% bovine serum albumin, pH 7.4). Unbound ligand was removed by pelleting the oocyte through 300 μl F50 silicone fluid (General Electric, Waterford, N.Y.). The tube was quick-frozen and gamma emissions from the amputated tips were counted.

[6] = Xenopus oocytes injected with p2 cRNA

CSCC[C@H](NC=O)C(=O)N[C@@H](CC(C)C)C(=O)N[C@@H](Cc1ccccc1)C(=O)O [FMLP, N-formyl methionyl-leucylphenylalanine, reference compound]
calcium efflux response (percent of loaded 45Ca2+ released) ([1]; 1 μM ligand): 51±3%
calcium mobilization / activation of the IL-8 receptor (result in words) (human IL-8 receptor [2]; [6]): did not respond

IL-8: inflammatory cytokine, potent chemoattractant for neutrophils; recombinant human IL-8 from Genzyme
Kd (receptor encoded by p2): 2 nM
rank order of potency for activating calcium flux (human IL-8 receptor [2]): IL-8>gro>NAP-2
EC50 (human IL-8 receptor [2]; Xenopus oocytes injected with p2 cRNA, FIG. 2A, read-out: EC50 of intracellular calcium mobilization): 20 nM
EC50 in oocytes relative to value reported for human neutrophils (human IL-8 receptor [2]; oocyte EC50 higher than that reported for human neutrophils with recombinant human IL-8): approximately 20 fold

gro: member of the macrophage inflammatory protein-2 (MIP-2) family of cytokines, structurally related to IL-8
Kd (receptor encoded by p2): 1.3 nM
rank order of potency for activating calcium flux (human IL-8 receptor [2]): IL-8>gro>NAP-2

recombinant human IL-8 (from UniProt P10145) (ligand)
calcium efflux (mobilization of intracellular calcium), EC50 [3]: 20 nM

B1: human interleukin-8 receptor encoded by cDNA clone p2 (receptor)
chain: T1 sequence (P25025 6-360)
binding result (recombinant human C5a): no binding (tested: 1 µM)
Kd (recombinant human IL-8): 2 nM
Kd [4]: 1.3 nM

B2: NAP-2: member of the MIP-2 family of cytokines; recombinant human NAP-2 from Bachem (protein)
chain: AELRCMCIKTTSGIHPKNIQSLEVIGKGTHCNQVEVIATLKDGRKICLDPDAPRIKKIVQKKLAGDESAD
rank order of potency for activating calcium flux (human IL-8 receptor [2]): IL-8>gro>NAP-2

B3: C5a: structurally unrelated chemoattractant, 74 amino acids; recombinant human C5a from Sigma (protein)
chain: TLQKKIEEIAAKYKHSVVKKCCYDGACVNNDETCEQRAARISLGPRCIKAFTECCVVASQLRANISHKDMQLGR
calcium efflux response (percent of loaded 45Ca2+ released) ([1]; 500 nM ligand): 16±5%
displacement of [125I]-IL-8 (human IL-8 receptor [5]): did not displace
calcium mobilization / activation of the IL-8 receptor (result in words) (human IL-8 receptor [2]; [6]): did not activate
